In the supplement of paper PMC9170038:

System: MS2 coat protein
Experiment: apparent KD of MS2 coat protein; designed switch direction (-1 OFF switch, 1 ON switch): -1; higher = weaker reporter binding
Summary of the method: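 SNAP-549-labelled MS2 coat protein was titrated, doubling from 0.7 or 1.5 nM to 3 µM, over designed RNA switches transcribed on Illumina chips by stalled E. coli RNA polymerase. Runs were done without input, with 200 uM small-molecule ligand, or with an oligonucleotide input. Apparent KD is the per-design median over clusters of curve-fitted normalised fluorescence.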

[1] = Eterna round: R95, input ligand: microRNA oligo, concentration not stated
[2] = Eterna round: R95, input ligand: FMN 200 uM
[3] = Eterna round: R95, input ligand: none
[4] = input ligand: microRNA oligo, concentration not stated

Sequence	apparent KD of MS2 coat protein [1]	apparent KD of MS2 coat protein (input ligand: FMN 200 uM)	apparent KD of MS2 coat protein (input ligand: none)	further results
CCGGAAUAGCAGGAUAUAGGAGUCGAUAGACACCUAGAAGGGCUGACAUGAGGAUCACCCAUGUGUCCUACCGG [Fiskers Ex 6 - 83] (puzzle: Exclusion 6)	71.5 nM			
CCGGAAUAGCAGGAUAUAGGAGUCGAUAGACACCUAGAAGGGUUGACAUGAGGAUCACCCAUGUGUCCUACCGG [Fiskers Ex 6 - 82] (puzzle: Exclusion 6)	247 nM			apparent KD of MS2 coat protein [2]: 322 nM; apparent KD of MS2 coat protein [3]: 519 nM
CCGGAAUUGCAGGAUAUAGGAGUCGAUAGACACCUAGAAGGGCAGACAUGAGGAUCACCCAUGUGUCCUACCGG [Fiskers Ex 6 - 84] (puzzle: Exclusion 6)	17.4 nM			
CCGGCAUGGUGCGGUAGUUGUACAACAUGAGGAUCACCCAUGUAGGAUAUGCGCGUGGUCACGCCGCAGAAGGACAACGUAUGG [Random, 25% A] (Eterna round: R96, puzzle: Exclusion NG 3)		668 nM	96 nM	apparent KD of MS2 coat protein [4]: 89.4 nM
CCGGCGUCAGGAUAUCGUAGCAGGACAUUCAGUCGCGGCUAUGAGAAGGGACAUGAGGAUCACCCAUGUCCUCA [Eternabot (Original) Solution 22] (Eterna round: R97, puzzle: Exclusion 4)		29.5 nM	21.5 nM	
CCGGUUGGCGCAGGAUAUACAUGAGGAUCACCCAUGUUGAUGAGGAUCACCCAUCAGUUUUUGUUGUAGAAGGGUGGCCCGGCC (Eterna round: R96, puzzle: Exclusion NG 2)				apparent KD of MS2 coat protein [4]: 16.2 nM
CCGUCCCGCCCUGGGUGGGACAUGAGGAUCACCCAUGUGGGUUUUCUUUCUUUCACCCGGGCGGGCGGGCGGGCUGG [sensor,turn-off variant1(1)] (Eterna round: R97, puzzle: Sensor, turn-off variant 1)		20.4 nM	54.8 nM	
CCUAGUGUCGGAGGAUAUCCUACACAAACCUUAGGAGAAGGCCGACAUGAGGAUCACCCAUGUAAAACCUAAACCUAAAAUCAA [Raesusbi] (Eterna round: R96, puzzle: Exclusion NG 1)		48.9 nM	15.2 nM	apparent KD of MS2 coat protein [4]: 12.8 nM
CCUAUGUGAGGAUAUGUCUGGUCUUCUUUUAUUUUUUACAGACAGAAGGCACAUGAGGAUCACCCAUGUCAGAC [Ex4 - 3 - 48] (puzzle: Exclusion 4)	23 nM			
CCUCAACAGUAGGAUAUCAUCAAACUAUUGUGAUGAGAAGGACUGACAUGAGGAUCACCCAUGUUGACGUGAUA [Exclusion 6 - 6:b] (puzzle: Exclusion 6)	47.8 nM			
CCUCCACAUGAGGAUCACCCAUGUCAGGAUAUCGUGUGUUUUUUUUCGGUCGCGCGUGCGAGAAGGGACGUCUU (puzzle: Exclusion 1)	23.7 nM			
CCUCCGUAUUAGGAUAUCGUCCCGGAAACGGGACGAGAAGGAAUGACAUGAGGAUCACCCAUGUUAACGUGAUG [Mod of Brourd 20 - Jieux - Exclusion 6] (Eterna round: R97, puzzle: Exclusion 6)		48.9 nM	20.7 nM	
CCUCUACAUGAGGAUCACCCAUGUGAGGAUAUAAGAUUGCGAAUUCCGCACUACGGUCUUAGAAGGCGCGUGGA [Riarve] (Eterna round: R96, puzzle: Exclusion 1)		31.3 nM	20.3 nM	apparent KD of MS2 coat protein [4]: 14.8 nM
CCUCUACAUGAGGAUCACCCAUGUGAGGAUAUAAGAUUGCGAAUUCCGCACUACGGUCUUAGAAGGCGCGUGGA [Riarve] (puzzle: Exclusion 1)	15.7 nM			
CCUCUACAUGAGGAUCACCCAUGUGAGGAUAUCAAAGUCAGAGCGGCUCUCUGACUCAUGAGAAGGUGCAUGAA [EX1 A.13] (Eterna round: R97, puzzle: Exclusion 1)		30.6 nM	21.6 nM	
CCUCUACAUGAGGAUCACCCAUGUGAGGAUAUCAGUGCAAAGGGCACGUAUUAAAACGUGAGAAGGCACAUGGG [EX1 A.17] (Eterna round: R97, puzzle: Exclusion 1)		88.9 nM	135 nM	
CCUCUUGGGCAAGGAUAUCCUGUGCGGUUCCGGCUCGUGUCUGUCACAUGAGGAUCACCCAUGUGGGAGAAGGUGCCUGCGGUC [Design 80] (Eterna round: R96, puzzle: Exclusion NG 2)		13 nM	16.3 nM	apparent KD of MS2 coat protein [4]: 10.7 nM

Sequence	apparent KD of MS2 coat protein [1]	apparent KD of MS2 coat protein (input ligand: FMN 200 uM)	apparent KD of MS2 coat protein (input ligand: none)	further results
CCUGCGUGAGGAUAUACAUGAGGAUCACCCAUGUCACAAUUAACACACUCCGCCUCACGUAGAAGGCACGCAUA [Tienarra] (Eterna round: R97, puzzle: Exclusion 3)		23.1 nM	13.6 nM	
CCUGUGUAAGGAUAUGACAAUGGUAUCUUCGGAUACCAUUGUCAGAAGGUACAUGAGGAUCACCCAUGUAACAC [Ex4-3: 13] (puzzle: Exclusion 4)	14.8 nM			
CCUUAGCGAGGAUAUACAUGAGGAUCACCCAUGUGAUCCUAAGGCUGAUCAAGCCUAUGUAGAAGGCGCAAAUC [salish99_ex3_r4_003] (Eterna round: R97, puzzle: Exclusion 3)		180 nM	442 nM	
CCUUAGUCACAGGAUAUGCUCAUCUAAUGAUGAGCAGAAGGGUGAACAUGAGGAUCACCCAUGUUUACCAGGGU [Omei Ex6 E4] (Eterna round: R97, puzzle: Exclusion 6)		247 nM	37.1 nM	
CCUUUGUCAGGAUAUCAGAAAACGCUCGUAGGGAGCGCAAAUGAGAAGGGACAUGAGGAUCACCCAUGUAAAGA [Edmareen] (puzzle: Exclusion 4)	45.1 nM			apparent KD of MS2 coat protein [2]: 219 nM; apparent KD of MS2 coat protein [3]: 60.3 nM
CCUUUGUCAGGAUAUCGAAAAGGGAGGCCAAAAGCCUCCGGUGAGAAGGGACAUGAGGAUCACCCAUGUGAAAA [Usleaor] (puzzle: Exclusion 4)	37.9 nM			
CGAGCUGGAGUGAGGAUAUCGUGUUCGAAAGAACGUGAGAAGGCACAUGAGGAUCACCCAUGUGAUUCAGCUCG [Omei Ex4B A4] (Eterna round: R97, puzzle: Brourd's mod of Exclusion 4)		28 nM	20.1 nM	
CGAGGUAGAGGAUAUACGUGGAAAUAGAUUCAUGUUAAUCUACAUGAGGAUCACCCAUGUAGAAGGCUAUAGCG [JR_Ex2_Sub075] (Eterna round: R97, puzzle: Exclusion 2)		80 nM	24.9 nM	
CGAGUGUAAGGAUAUUCGGCGCCAGGGAACAACCUAGCGUAGAAGAAGGUACAUGAGGAUCACCCAUGUGGUUA [Riatees] (puzzle: Exclusion 4)	151 nM			
CGAUAAAGCUGAGGAUAUGAGAAUAGAAAGAAAUCAGAAGGCAGACAUGAGGAUCACCCAUGUGAGUUCUCGAGAUUACAUGGU [Prohibition 46 - Jieux - Exclusion NG 1] (Eterna round: R96, puzzle: Exclusion NG 1)				apparent KD of MS2 coat protein [4]: 112 nM
CGAUGCUCGUGCCCACAUGAGGAUCACCCAUGUCGAGUCAGCGAGGAUAUCGGUGGCACAUAGUACGAGAAGGCGCGGACCUGA [Ex NG3 #18] (Eterna round: R96, puzzle: Exclusion NG 3)		17.7 nM	17 nM	apparent KD of MS2 coat protein [4]: 11.5 nM
CGAUGUUAUGUCAGGAUAUGCAUUGCGAAAGCAAUGCAGAAGGGACAUGAGGAUCACCCAUGUCCUAACCAUCG [Omei A 4] (puzzle: Brourd's mod of Exclusion 4)	11.1 nM			
CGAUGUUGUGUCAGGAUAUGCGUUGCGAAAGCAAUGUAGAAGGGACAUGAGGAUCACCCAUGUUCUAACCAUCG [Omei A 9] (puzzle: Brourd's mod of Exclusion 4)	11.2 nM			
CGCUGGACAGGAUAUGUUCUUGAGCACUUGAGGAUCACCCAAGUCAUCAAGAACUCAGGCACAGAAGGGUUUAUGG [salish99_ex5_r4_016] (Eterna round: R97, puzzle: Exclusion 5)		24.6 nM	13.4 nM	
CGCUGGACAGGAUAUGUUCUUGGGCACUUGAGGAUCACCCAAGUCAUCAAGAAAACAGGCACAGAAGGGUUUAUGG [salish99_ex5_r4_020] (Eterna round: R97, puzzle: Exclusion 5)		32.1 nM	24.1 nM	
CGCUGGUGAGGAUAUGGGUGUGGUUACAUGAGGAUCACCCAUGUGGUGUCGCAUGUGGGUCCAGAAGGCGCGGGUG [-25.2, -23.4 kcal, 17% A] (Eterna round: R97, puzzle: Exclusion 5)		856 nM	585 nM	
CGGACACCAGUAGGAUAUGUAGGAUAUGUUGUUGAGGAUCACCCAACAAAUUAAACGACAGAAGGACAGAAGGACUGUUCUCCU [pwkr exNG2 2xFMN 1xF5.2] (Eterna round: R96, puzzle: Exclusion NG 2)		18.6 nM	24.7 nM	apparent KD of MS2 coat protein [4]: 14.5 nM
